“And” between values parts separate entries of the source, which are not always exact repeats. Equal entries are not always repeated. “Also recorded” adds a separate entry of the source. Where two headings read alike, the source gives them in different places. Non-standard residues stand in square brackets, D forms with d. Residues, ends and D or L forms follow the SMILES beside them. *: point of attachment. Propanoyl(3-SS-DM1) = COc1cc2cc(c1Cl)N(C)C(=O)C[C@H](OC(=O)[C@H](C)N(C)C(=O)CCSSCCC(=O)*)[C@]1(C)O[C@H]1[C@H](C)[C@@H]1C[C@@](O)(NC(=O)O1)[C@H](OC)/C=C/C=C(\C)C2; DOTA = O=C(O)CN1CCN(CC(=O)O)CCN(CC(=O)*)CCN(CC(=O)O)CC1; EuK = O=C(O)CC[C@H](NC(=O)N[C@@H](CCCCN*)C(=O)O)C(=O)O; Sta = CC(C)C[C@H](N)[C@@H](O)CC(=O)O; Ahx = NCCCCCC(=O)O

These results are taken from publication PMC10458530, “Synthesis and Evaluation of ePSMA-DM1: A New Theranostic Small-Molecule Drug Conjugate (T-SMDC) for Prostate Cancer” (Pharmaceuticals, 2023).

One data set is described as follows: Stability in PBS. Particulars: 24 h post incubation, 37 °C. In kind it is physicochemical. How it is done: [^111In]In-ePSMA-DM1 (~10 MBq, 20 µL) was mixed with 80 μL of PBS (0.01 M, pH 7.4) and incubated at 37 °C for up to 24 h. A sample of the PBS solution was loaded directly onto the radio-HPLC at 1, 4 and 24 h post incubation.
Another data set is described as follows: Stability in mouse serum. In kind it is in vitro ADME. Particulars: 24 h post incubation, 37 °C. Here is the method: [^111In]In-ePSMA-DM1 (~30 MBq, 70 µL) was mixed with 330 μL of mouse serum and incubated at 37 °C for up to 24 h. To a separate vial containing 50 µL of acetonitrile, 50 μL of the mouse serum solution was added after 1, 4 and 24 h of incubation. The sample was centrifuged at 5000× g for 20 min. The supernatant was analyzed by radio-HPLC.

Data set [1] concerns BALB/c nu/nu LS174T xenografted mice. The data set can be described thus: Ex vivo biodistribution. It is filed as in vivo, mouse. The note with it: estimated, one-phase decay. Here is the method:
Animal experiments were performed using male BALB/c nude mice (8–10 weeks old; Janvier Labs, Le Genest-Saint-Isle, France). Animals were housed in individually ventilated cages (Blue line IVC, 2 mice per cage) under sterile standard conditions with cage enrichments present and free access to animal chow (Sniff GmbH, Soest, Germany) and water. They were acclimated for 1 week prior to experiments. Mice were subcutaneously inoculated with 4.0 × 10^6 LS174T cells in the right flank diluted in 100 μL of cell suspension […]. The average tumor volume size per group (n = 4) was of 206.2 ± 7.9 mm^3 (average weight of 105.8 ± 7.3 mg) after non-blinded grouping to enable homogenous tumor size distribution. [^111In]In-ePSMA-DM1 was injected intravenously via the tail vein. All experiments were approved by the institutional Animal Welfare Committee and were conducted in accordance to the guidelines of the Revised Dutch Act on Animal Experimentation (WOD).
Mice were intravenously injected with ~1 nmol of [^111In]In-ePSMA-DM1 (5 MBq). Mice (n = 4/timepoint) were euthanized by cervical dislocation at 1, 4 and 24 h p.i. A block group (co-injection of 50 nmol of PSMA-617) was included, and mice were euthanized at 4 h p.i. Organs (blood, heart, lungs, liver, spleen, stomach, intestines, pancreas, kidneys, muscle, skin, bone and prostate) and the tumors were collected in pre-weighed tubes, weighed after organ collection, and measured in the γ-counter, for which the calibration factor was determined by measuring different known activities of In-111. Activity was corrected for decay, and uptake was expressed as percentage of the injected dose per gram of the tissue (% ID/g). The biological half-lives in tissues of [^111In]In-ePSMA-DM1 were determined using a one-phase decay algorithm in GraphPad Prism 9.0 (GraphPad Software, Boston, MA, USA).

For data set [2], the system named is PSMA-positive LS174T cells. In words: Resazurin-based cytotoxicity assay. In kind it is cell-based, human. Particulars: for cell viability: 48 h post treatment. Here is the method: LS174T human colon carcinoma cells transfected with human PSMA were cultured in RPMI-1640 media supplemented with 2 mM glutamine, 10% fetal bovine serum (FBS) and 0.3 mg/mL G418 (Geneticin, Sigma Aldrich, Burlington, MA, USA). The cells were provided by Dr. Sandra Heskamp (Radboud UMC, Nijmegen, The Netherlands).
A resazurin in vitro toxicology assay kit was used to determine cytotoxicity. Briefly, 5 × 10^3 LS174T cells were seeded in a volume of 100 µL per well in 96-well plates and incubated at 37 °C with 5% CO2 for 24 h before the experiment. After incubation, the media were removed, and the wells were washed once with PBS. Then, ePSMA-DM1 at the concentrations of 1, 10, 100 and 1000 nM and the positive control DM1 (1000 nM) were prepared in culture media (RPMI-1640 media supplemented with 2 mM glutamine, 10% fetal bovine serum (FBS) and 0.3 mg/mL G418). Media and PSMA-617 (100 nM) were used as negative controls. Cells were incubated with 100 µL of the tested compounds for 48 and 72 h at 37 °C with 5% CO2. After incubation, media were removed, and each well was washed once with PBS. Next, 100 µL of 10% resazurin solution (TOX8, Sigma-Aldrich) in culture media was added to each well and incubated for 2.5 h. Fluorescence was measured using the HIDEX Sense Optical System with excitation at 544 nm and emission at 590 nm. Data were analyzed using GraphPad Prism 9.0 and expressed as cell viability (%). The experiments were performed in triplicate.

The target of the next data set is T1, Recombinant human PSMA (Homo sapiens, UniProt Q04609).
T1 construct: purchased R & D systems, Abingdon, UK
T1 sequence (Q04609 whole entry): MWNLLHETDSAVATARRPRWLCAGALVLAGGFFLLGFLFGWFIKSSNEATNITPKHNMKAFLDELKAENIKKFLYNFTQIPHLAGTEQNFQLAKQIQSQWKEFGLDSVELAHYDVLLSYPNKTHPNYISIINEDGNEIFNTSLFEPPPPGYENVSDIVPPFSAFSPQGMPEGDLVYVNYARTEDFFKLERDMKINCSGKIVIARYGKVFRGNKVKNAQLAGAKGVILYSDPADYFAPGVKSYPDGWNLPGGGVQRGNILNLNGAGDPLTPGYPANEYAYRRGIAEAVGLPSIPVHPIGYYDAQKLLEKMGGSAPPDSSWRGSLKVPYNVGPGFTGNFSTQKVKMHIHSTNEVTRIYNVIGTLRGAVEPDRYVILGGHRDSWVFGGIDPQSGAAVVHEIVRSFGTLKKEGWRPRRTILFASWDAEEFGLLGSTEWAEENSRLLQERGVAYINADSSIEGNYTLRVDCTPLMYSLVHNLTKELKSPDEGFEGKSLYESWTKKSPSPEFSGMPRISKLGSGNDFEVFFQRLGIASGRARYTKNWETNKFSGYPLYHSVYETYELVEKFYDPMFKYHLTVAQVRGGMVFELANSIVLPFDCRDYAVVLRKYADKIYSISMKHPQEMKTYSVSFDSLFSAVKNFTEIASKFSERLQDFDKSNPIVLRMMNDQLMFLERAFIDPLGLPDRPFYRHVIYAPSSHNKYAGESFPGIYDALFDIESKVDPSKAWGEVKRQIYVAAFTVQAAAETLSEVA
In words: NAALADase enzymatic assay (binding to PSMA). In kind it is biochemical. How it is done: Recombinant human PSMA (rhPSMA; R & D systems, Abingdon, UK) was diluted in assay buffer (50 mM HEPES, 0.1 M NaCl, pH 7.5) to 0.4 μg/mL. The substrate Ac-Asp-Glu (40 μM) was mixed with ePSMA-DM1 or with a reference (PSMA-617) at concentrations ranging from 10^−6 to 10^−13 M in a final volume of 12.5 μL assay buffer. The mixtures were combined with 12.5 μL of the rhPSMA solution and incubated for 1 h at 37 °C in 384-well black polystyrene microplates (ThermoFisher, Bleiswijk, The Netherlands). A volume of 25 μL of a working solution of the Amplex Red glutamic acid kit (ThermoFisher, Bleiswijk, The Netherlands) was added and incubated at 37 °C for 30 min. Release of glutamate was measured by fluorescence with a HIDEX Sense Optical System (Goedereede, The Netherlands) set at 535 nm (excitation) and 590 nm (emission). Data were normalized, and one-site total binding regression was applied for analysis with GraphPad Prism v9.0 (GraphPad Software, San Diego, CA, USA).

Data set [3] can be described thus: Glutathione (GSH) stability / drug release assay. In kind it is in vitro ADME. How it is done:
The protocol was adapted from the literature. A 5 mM solution of L-glutathione was prepared in PBS, and 990 μL aliquots were dispensed into Eppendorf tubes. To each tube, 10 μL of a solution of ePSMA-DM1 (1 mM) in MeOH was added, and the mixtures were incubated at 37 °C. Then 50 μL aliquots of the solution were taken at 10 min, 30 min, 1, 2, 4 and 6 h and analyzed by LC-MS. The experiments were performed in triplicate.

For `COc1cc2cc(c1Cl)N(C)C(=O)C[C@H](OC(=O)[C@H](C)N(C)C(=O)CCSSCCC(=O)NCCCC[C@H](NC(=O)CN1CCN(CC(=O)O)CCN(CC(=O)O)CCN(CC(=O)O)CC1)C(=O)N[C@@H](CC(=O)O)C(=O)N[C@@H](Cc1ccccc1)C(=O)N[C@@H](CC(C)C)[C@@H](O)CC(=O)NCCCCCC(=O)NCCCC[C@H](NC(=O)N[C@@H](CCC(=O)O)C(=O)O)C(=O)O)[C@]1(C)O[C@H]1[C@H](C)[C@@H]1C[C@@](O)(NC(=O)O1)[C@H](OC)/C=C/C=C(\C)C2` [[^177Lu]Lu-ePSMA-DM1] [metal not drawn] ({DOTA}-K(Propanoyl(3-SS-DM1))DF[Sta][Ahx]-EuK), in the data set “Stability in PBS”, the “Stability in PBS (%)” value is recorded as 81.4%. In the data set “Stability in mouse serum”, the “Stability in Mouse Serum (%)” value turned out to be 91.2%.
As to `COc1cc2cc(c1Cl)N(C)C(=O)C[C@H](OC(=O)[C@H](C)N(C)C(=O)CCSSCCC(=O)NCCCC[C@H](NC(=O)CN1CCN(CC(=O)O)CCN(CC(=O)O)CCN(CC(=O)O)CC1)C(=O)N[C@@H](CC(=O)O)C(=O)N[C@@H](Cc1ccccc1)C(=O)N[C@@H](CC(C)C)[C@@H](O)CC(=O)NCCCCCC(=O)NCCCC[C@H](NC(=O)N[C@@H](CCC(=O)O)C(=O)O)C(=O)O)[C@]1(C)O[C@H]1[C@H](C)[C@@H]1C[C@@](O)(NC(=O)O1)[C@H](OC)/C=C/C=C(\C)C2` [[^111In]In-ePSMA-DM1] [metal not drawn] ({DOTA}-K(Propanoyl(3-SS-DM1))DF[Sta][Ahx]-EuK), the “Stability in PBS (%)” value in the data set “Stability in PBS” is recorded as 90.9%. Moreover, in the data set “Stability in mouse serum”, the “Stability in Mouse Serum (%)” value worked out at 82.9%. Further, in data set [1], the “half-life in the blood” value is reported as 1.5 h and the “half-life in the tumor” value was 2.1 h.
Take `COc1cc2cc(c1Cl)N(C)C(=O)C[C@H](OC(=O)[C@H](C)N(C)C(=O)CCS)[C@]1(C)O[C@H]1[C@H](C)[C@@H]1C[C@@](O)(NC(=O)O1)[C@H](OC)/C=C/C=C(\C)C2` [DM1, Mertansine, reference compound]: in data set [2] (1000 nM), the cell viability is given as ~ 50%. In addition, in data set [2] (1000 nM, 72 h), the “decrease in cell viability” value is “more than 85%”.
Regarding `O=C(O)CC[C@H](NC(=O)N[C@@H](CCCCNC(=O)[C@H](Cc1ccc2ccccc2c1)NC(=O)[C@H]1CC[C@H](CNC(=O)CN2CCN(CC(=O)O)CCN(CC(=O)O)CCN(CC(=O)O)CC2)CC1)C(=O)O)C(=O)O` [PSMA-617, reference compound], the IC50 at Recombinant human PSMA (NAALADase assay, rhPSMA, substrate Ac-Asp-Glu, read-out: IC50 (binding affinity to PSMA)) stood at 0.00219 ± 0.00078 µM. For the same compound, the “decrease in viability” value in data set [2] (100 nM, negative control) is “not observed”.
On to `COc1cc2cc(c1Cl)N(C)C(=O)C[C@H](OC(=O)[C@H](C)N(C)C(=O)CCSSCCC(=O)NCCCC[C@H](NC(=O)CN1CCN(CC(=O)O)CCN(CC(=O)O)CCN(CC(=O)O)CC1)C(=O)N[C@@H](CC(=O)O)C(=O)N[C@@H](Cc1ccccc1)C(=O)N[C@@H](CC(C)C)[C@@H](O)CC(=O)NCCCCCC(=O)NCCCC[C@H](NC(=O)N[C@@H](CCC(=O)O)C(=O)O)C(=O)O)[C@]1(C)O[C@H]1[C@H](C)[C@@H]1C[C@@](O)(NC(=O)O1)[C@H](OC)/C=C/C=C(\C)C2` [ePSMA-DM1] ({DOTA}-K(Propanoyl(3-SS-DM1))DF[Sta][Ahx]-EuK), for which the IC50 on Recombinant human PSMA worked out at 0.0453 ± 0.00184 µM. Also, the drug released in data set [3] (after 2 h, 5 mM GSH) is ~ 50% and 50%. In addition, in data set [3] (buffer, 5 mM GSH in PBS, 37 °C, read-out: half-life in a reducing environment (converted)), the half-life at 10 µM is 2 h. Also, in data set [2] (1 nM, 48 and 72 h), the “cytotoxic effect” value is given as “not sufficient to elicit cell death; also recorded: not observed”. The cell viability in data set [2] (100 nM) and in data set [2] (1000 nM) was ~ 50% each time.
